Results taken from US20260191905A1 (MODERNATX, published 2026).
Positions count from the first letter of the chain named. Blank lines part the entries; values can stand above or below the molecule they belong to.

How the values were obtained:
[1] = molecular target: human GPC3 on Jurkat E6.1 cells (human) (UniProt P51654); test: FACS; share of events in the FL1-A+ gate (from 10^5); secondary only 0.21; cells by legend: Jurkat E6.1 with human GPC3, not printed on the panel [23B]
[2] = molecular target: human GPC3 on Jurkat E6.1 cells (human) (UniProt P51654); test: FACS; share of events in the FL1-A+ gate (from 10^5); beside Irrelavant IgG C10 6.49; cells by legend: Jurkat E6.1 with human GPC3, not printed on the panel [23D]
[3] = molecular target: human GPC3 on Jurkat E6.1 cells (human) (UniProt P51654); test: FACS; share of events in the FL1-A+ gate (from 10^5); cells by legend: Jurkat E6.1 with human GPC3, not printed on the panel [23C]
[4] = molecular target: T1, human GPC3 recombinant protein (human, UniProt P51654 25-559); test: SPR (Biacore), VHH-His over human GPC3 on CM5; fit 131.7 - 17.34 nM; Rmax 1.51 RU; Chi2 0.0556
T1 construct: also called huGPC3; Human GPC3 protein
T1 sequence (P51654 25-559 limits assumed): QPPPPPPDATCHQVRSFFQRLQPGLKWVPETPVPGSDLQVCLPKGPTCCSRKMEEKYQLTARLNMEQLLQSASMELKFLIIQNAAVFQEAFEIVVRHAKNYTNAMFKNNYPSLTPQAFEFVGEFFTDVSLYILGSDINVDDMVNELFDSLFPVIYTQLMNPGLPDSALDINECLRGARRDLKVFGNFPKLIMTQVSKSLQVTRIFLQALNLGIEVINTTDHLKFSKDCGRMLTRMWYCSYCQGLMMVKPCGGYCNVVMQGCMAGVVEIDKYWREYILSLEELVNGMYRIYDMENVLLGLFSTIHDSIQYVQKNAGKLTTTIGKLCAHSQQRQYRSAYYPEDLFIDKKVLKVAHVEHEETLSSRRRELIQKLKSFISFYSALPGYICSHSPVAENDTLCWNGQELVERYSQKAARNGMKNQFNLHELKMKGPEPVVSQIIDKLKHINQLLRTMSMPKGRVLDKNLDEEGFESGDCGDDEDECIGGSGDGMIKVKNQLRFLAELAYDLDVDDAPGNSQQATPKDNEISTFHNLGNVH
Method: (§1) Affinities of the 19 VHH-His tagged domains were then determined by BiaCore assay. Human GPC3 protein (Sino biological cat. nr. 10088-H08H-500) was immobilized on CM5 sensor chip (GE Healthcare) as antigen. Purified VHH-His tagged domains were diluted in BiaCore buffer (0.01 M HEPES pH 7.4, 0.15 M NaCl, 3 mM EDTA, 0.05% P20) to 500 nM and injected over 2 minutes at […] followed by a half dilution series to 7.8 nM. 10 μl of 10 mM NaOH/1M NaCl were injected between samples and then off-rate wash was 5 minutes.

[5] = molecular target: T1, human GPC3 recombinant protein; test: SPR (Biacore), summary table; Chi2 0.0556; Profile 'L.D.'; asterisk: values not accurately calculated by Biacore software
Method: as §1

[6] = molecular target: T1, human GPC3 recombinant protein; test: SPR (Biacore), VHH-His over human GPC3 on CM5; fit 131.7 - 17.34 nM; Rmax 1.51 RU; Chi2 0.0556; asterisk: values not accurately calculated by Biacore software
Method: as §1

[7] = molecular target: T2, human GPC3 on HepG2 cells (human, UniProt P51654 25-554); test: FACS, phage-displayed clone on HepG2, well A1; same clone on A-431 (no GPC3): 0.95%
T2 construct: whole, on cells
T2 sequence (P51654 25-554 limits assumed): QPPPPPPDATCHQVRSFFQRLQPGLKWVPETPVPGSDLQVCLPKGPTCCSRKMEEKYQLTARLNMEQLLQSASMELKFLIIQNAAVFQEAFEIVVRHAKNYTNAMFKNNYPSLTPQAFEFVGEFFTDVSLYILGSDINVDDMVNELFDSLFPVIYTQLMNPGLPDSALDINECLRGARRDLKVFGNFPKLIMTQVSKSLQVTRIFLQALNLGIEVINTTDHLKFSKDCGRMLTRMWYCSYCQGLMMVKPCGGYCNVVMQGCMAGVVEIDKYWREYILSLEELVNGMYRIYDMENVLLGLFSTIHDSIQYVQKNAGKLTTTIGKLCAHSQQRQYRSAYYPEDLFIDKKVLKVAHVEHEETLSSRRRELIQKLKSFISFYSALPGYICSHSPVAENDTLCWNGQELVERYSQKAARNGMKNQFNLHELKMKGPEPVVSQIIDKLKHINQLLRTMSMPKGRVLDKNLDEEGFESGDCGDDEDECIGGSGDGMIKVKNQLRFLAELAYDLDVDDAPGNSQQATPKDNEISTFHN

[8] = molecular target: T2, human GPC3 on HepG2 cells; test: FACS, phage-displayed clone on HepG2, well A1; same clone on A-431 (no GPC3): 1028.96
[9] = molecular target: T1, human GPC3 recombinant protein; test: SPR (Biacore), summary table; Chi2 0.926; Profile 'L.D.' (less desirable)
Method: as §1

[10] = molecular target: T2, human GPC3 on HepG2 cells; test: FACS, periplasmic extract 1:5 + anti-c-myc + GAM-APC on HepG2, well A1; same on A-431: 0.10%
[11] = molecular target: T2, human GPC3 on HepG2 cells; test: FACS, periplasmic extract 1:5 + anti-c-myc + GAM-APC on HepG2, well A1; same on A-431: 853.36
[12] = molecular target: T1, human GPC3 recombinant protein; test: SPR (Biacore), VHH-His over human GPC3 on CM5; fit 125 - 7.8 nM; Rmax 16.8 RU; Chi2 0.926
Method: as §1

[13] = molecular target: T1, human GPC3 recombinant protein; test: SPR (Biacore) off-rate screen, periplasmic extract over human GPC3 on CM5; R0 13.6; asterisk not explained on the sheet
Method: (§2) Human GPC3 protein in acetate buffer, pH 5.0, was immobilized in a sensor chip CM5 (GE Healthcare; Cat. Nr. BR-1005-30; Lot. Nr.10245232) and successful immobilization was confirmed by using a commercially available human GPC3 antibody (R&D cat. nr. MAB2119) and the anti-GPC3-VHH-Fc (both at 10 μg/mL). Periplasmic extracts from the MP were diluted in Biacore Buffer (0.01 M HEPES pH 7.4, 0.15 M NaCl, 3 mM EDTA, 0.05% P20) and injected over 2 minutes at 30 μL/min. 10 μl of 10 mM NaOH/1M NaCl were injected between samples and off-rates were measured over 5 minutes. Off-rate ([…]) were calculated using BIACORE software 1:1 interaction Langmuir binding model.

[14] = molecular target: T1, human GPC3 recombinant protein; test: SPR (Biacore) off-rate screen, periplasmic extract over human GPC3 on CM5; R0 40.1
Method: as §2

[15] = molecular target: T2, human GPC3 on HepG2 cells; test: FACS, phage-displayed clone on HepG2, well A2; same clone on A-431 (no GPC3): 0.72%
[16] = molecular target: T2, human GPC3 on HepG2 cells; test: FACS, phage-displayed clone on HepG2, well A2; same clone on A-431 (no GPC3): 1042.47
[17] = molecular target: T2, human GPC3 on HepG2 cells; test: FACS, periplasmic extract 1:5 + anti-c-myc + GAM-APC on HepG2, well A2; same on A-431: 0.21%
[18] = molecular target: T2, human GPC3 on HepG2 cells; test: FACS, periplasmic extract 1:5 + anti-c-myc + GAM-APC on HepG2, well A2; same on A-431: 753.37
[19] = molecular target: T1, human GPC3 recombinant protein; test: SPR (Biacore) off-rate screen, periplasmic extract over human GPC3 on CM5; R0 71.6
Method: as §2

[20] = molecular target: T1, human GPC3 recombinant protein; test: SPR (Biacore), summary table; Chi2 0.365; Profile 'Medium'; FIG. 18 prints 3.82E-09
[21] = molecular target: T1, human GPC3 recombinant protein; test: SPR (Biacore), VHH-His over human GPC3 on CM5; fit 250 - 7.8 nM; Rmax 11.3 RU; Chi2 0.365
Method: as §1

[22] = molecular target: T1, human GPC3 recombinant protein; test: SPR (Biacore), VHH-His over human GPC3 on CM5; fit 131.7 - 17.34 nM; Rmax 1.72 RU; Chi2 0.173
Method: as §1

[23] = molecular target: T1, human GPC3 recombinant protein; test: SPR (Biacore), summary table; Chi2 0.173; Profile 'L.D.'; asterisk: values not accurately calculated by Biacore software
Method: as §1

[24] = molecular target: T1, human GPC3 recombinant protein; test: SPR (Biacore), VHH-His over human GPC3 on CM5; fit 131.7 - 17.34 nM; Rmax 1.72 RU; Chi2 0.173; asterisk: values not accurately calculated by Biacore software
Method: as §1

[25] = molecular target: T1, human GPC3 recombinant protein; test: SPR (Biacore), summary table; Chi2 0.281; Profile 'Good'
[26] = molecular target: T1, human GPC3 recombinant protein; test: SPR (Biacore) off-rate screen, periplasmic extract over human GPC3 on CM5; R0 61.1
Method: as §2

[27] = molecular target: T1, human GPC3 recombinant protein; test: SPR (Biacore), VHH-His over human GPC3 on CM5; fit 131.7 - 17.34 nM; Rmax 11.5 RU; Chi2 0.281
Method: as §1

[28] = molecular target: T2, human GPC3 on HepG2 cells; test: FACS, phage-displayed clone on HepG2, well H1; same clone on A-431 (no GPC3): 1.36%
[29] = molecular target: T2, human GPC3 on HepG2 cells; test: FACS, phage-displayed clone on HepG2, well H1; same clone on A-431 (no GPC3): 1059.31
[30] = molecular target: T2, human GPC3 on HepG2 cells; test: FACS, periplasmic extract 1:5 + anti-c-myc + GAM-APC on HepG2, well H1; same on A-431: 0.24%
[31] = molecular target: T2, human GPC3 on HepG2 cells; test: FACS, periplasmic extract 1:5 + anti-c-myc + GAM-APC on HepG2, well H1; same on A-431: 759.64
[32] = molecular target: T1, human GPC3 recombinant protein; test: SPR (Biacore) off-rate screen, periplasmic extract over human GPC3 on CM5; R0 59.0
Method: as §2

[33] = molecular target: T1, human GPC3 recombinant protein; test: SPR (Biacore), summary table; Chi2 0.281; Profile 'Medium'; FIG. 18 prints 2.97E-09
Method: as §1

[34] = molecular target: T1, human GPC3 recombinant protein; test: SPR (Biacore), VHH-His over human GPC3 on CM5; fit 250 - 7.8 nM; Rmax 8.15 RU; Chi2 0.281
Method: as §1

[35] = molecular target: human GPC3 on Jurkat E6.1 cells (human) (UniProt P51654); test: FACS, 1 µg/ml VH + anti-His-FITC; share of events in the FL1-A+ gate (from 10^5); secondary only 0.21 [23F]

Chain of human GPC3 on Jurkat E6.1 cells (human) (P51654 25-554 limits assumed): as above

- koff [4]: 0.00119 s⁻¹
- kon [4]: 222000 M⁻¹ s⁻¹
- Kd [5]: ~5.36 nM
- Ka [6]: ~1.86e+08 M⁻¹
- Kd [6]: ~5.36 nM
B1: anti-GPC3 VHH-His tagged domain VHH17 (VHH)
VHH: EVQLVESGGGLVQPGGSLRLSCAASGFTFSSYAMSWVRQAPGKGLEWVSAIYSGGSTYYADSVKGRFTISRDNSKNTLYLQMNSLRAEDTAVYYCARGDSSSSRFDYWGQGTLVTVSS
notes: Produced from a mammalian expression vector as a His fusion; not shown: His tag

- % of Binding [7]: 18.6%
- Mean FL2-A [8]: 2720
- Kd [9]: 66.2 nM
- % of Binding [10]: 0.38%
- Mean FL4-A [11]: 729
- Ka [12]: 1.51e+07 M⁻¹
- Kd [12]: 66.2 nM
- koff [12]: 0.0216 s⁻¹
- kon [12]: 327000 M⁻¹ s⁻¹
- koff [13]: 0.00728 s⁻¹
B2: anti-GPC3 VHH-His tagged domain VHH14 (VHH)
VHH: QVQLVESGGGLVQPGGSLRLSCAASGFNFSNYWMHWVRQAPGKELVWVSRINSDGSSTSYADPVKGRFTISRDNANNMLYLQMNSLRAEDTAMYYCVRVALGFDFWGQGTLVTVSS
notes: as for B1

- % of Binding [15]: 61.4%
- Mean FL2-A [16]: 26600
- % of Binding [17]: 0.3%
- Mean FL4-A [18]: 752
- koff [19]: 0.00607 s⁻¹
- Kd [20]: 3.57 nM
- Ka [21]: 2.62e+08 M⁻¹
- Kd [21]: 3.82 nM
- koff [21]: 0.00538 s⁻¹
- kon [21]: 1.41e+06 M⁻¹ s⁻¹
B4: anti-GPC3 VHH-His tagged domain VHH13 (VHH)
VHH: EVQLVESGGGLVQPGGSLRLSCAASGFTFSSYAMSWVRQAPGKEPEWVSSISGGGGSTYYADSLKGRFTISRDNSKNTLYLQMNRLRAEDTAVYYCARDPMFGERPFDYWGQGTLVTVSS
notes: as for B1

- koff [22]: 0.00249 s⁻¹
- kon [22]: 511000 M⁻¹ s⁻¹
- Kd [23]: ~4.88 nM
- Ka [24]: ~2.05e+08 M⁻¹
- Kd [24]: ~4.88 nM
B5: anti-GPC3 VHH-His tagged domain VHH18 (VHH)
VHH: B4 VHH with E1Q, G56S, R85S, A97S, M101R, F102L, R105P, L115T
notes: as for B1

- % of Binding [28]: 66.2%
- Mean FL2-A [29]: 22600
- % of Binding [30]: 0.57%
- Mean FL4-A [31]: 842
- koff [32]: 0.00325 s⁻¹
- Kd [33]: 2.19 nM
- Ka [34]: 3.37e+08 M⁻¹
- Kd [34]: 2.97 nM
- koff [34]: 0.00261 s⁻¹
- kon [34]: 880000 M⁻¹ s⁻¹
- FL1-A+ [35]: 0.78
B7: anti-GPC3 VHH-His tagged domain VHH11 (VHH)
VHH: B4 VHH with G56S, R85S, A97S, M101R, G103R, R105P
notes: as for B1

Second part, the molecule before the results:

Molecule: HN3-Fc (Fc fusion)
- FL1-A+ [1]: 47.1
- FL1-A+ [2]: 74.9

Molecule: Irrelavant IgG C10 (antibody)
- FL1-A+ [3]: 6.49

B3: VH23 (VHH)
VHH: B4 VHH with P45S, G56S, R85S, A97S, R98K, M101R, R105P
notes: also called VHH23
- koff [14]: 0.00347 s⁻¹

B6: anti-GPC3 VHH-His tagged domain VHH4 (VHH)
VHH: B4 VHH with E1Q, P45S, G54S, G56S, R85S, A97S, R98K, M101R, R105P, L115T
notes: Produced from a mammalian expression vector as a His fusion; also called VH4; not shown: His tag
- Kd [25]: 5.07 nM
- koff [26]: 0.00236 s⁻¹
- Ka [27]: 1.97e+08 M⁻¹
- Kd [27]: 5.07 nM
- koff [27]: 0.00237 s⁻¹
- kon [27]: 466000 M⁻¹ s⁻¹
